Results taken from the supplement of paper PMC9112550, “Optimization of the antimicrobial peptide Bac7 by deep mutational scanning” (BMC Biology, 2022).

Tested on: Escherichia coli TOP10
Assay: shrunken log2 fold change of peptide-encoding DNA abundance (4.5 h post-induction vs induction); higher = less antimicrobial activity (less host growth inhibition)
Details: time post-induction: 4.5 h; library: site-saturation at positions 5, 18, 19, 20
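Also: peptides expressed intracellularly from a pBAD plasmid library in pooled LB shake-flask culture, induced with 0.3% L-arabinose, DNA abundance read by NGS, three biological replicates, DESeq2 with apeglm shrinkage.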

Sequence | shrunken log2 fold change
RRIRKRPPRLPRPRPRPHQKPRP | -0.0675
RRIRLRPPRLPRPRPRPRVDPRP | -0.0238
RRIRLRPPRLPRPRPRPTYHPRP | -0.358
RRIRVRPPRLPRPRPRPIREPRP | -0.152
RRIRVRPPRLPRPRPRPFGMPRP | -0.0877
RRIRYRPPRLPRPRPRPVCKPRP | -1.41
RRIRMRPPRLPRPRPRPNKCPRP | 0.216
RRIRGRPPRLPRPRPRPYHSPRP | -0.861
RRIRCRPPRLPRPRPRPPELPRP | 0.643
RRIRYRPPRLPRPRPRPKKQPRP | -0.00353
RRIRRRPPRLPRPRPRPLSLPRP | -0.203
RRIRMRPPRLPRPRPRPLNDPRP | 0.106
RRIRMRPPRLPRPRPRPKTQPRP | 0.971
RRIRHRPPRLPRPRPRPLPMPRP | -0.00404
RRIRTRPPRLPRPRPRPTCKPRP | -0.047
RRIRYRPPRLPRPRPRPILNPRP | -0.768
RRIRIRPPRLPRPRPRPQHNPRP | -0.735
RRIRMRPPRLPRPRPRPVMTPRP | 0.148
RRIRARPPRLPRPRPRPQKEPRP | -0.0202
RRIRVRPPRLPRPRPRPEYQPRP | -0.235
RRIRSRPPRLPRPRPRPTGTPRP | -0.0039
RRIRCRPPRLPRPRPRPWLFPRP | -0.179

Sequence | shrunken log2 fold change
RRIRCRPPRLPRPRPRPRGRPRP | 0.46
RRIRIRPPRLPRPRPRPGFPPRP | 0.186
RRIRTRPPRLPRPRPRPFMWPRP | -0.119
RRIRNRPPRLPRPRPRPHQSPRP | -0.104
RRIRTRPPRLPRPRPRPSEEPRP | 0.0771
RRIRARPPRLPRPRPRPWMRPRP | 0.263
RRIRWRPPRLPRPRPRPHSWPRP | 0.189
RRIRPRPPRLPRPRPRPELTPRP | 0.537
RRIRLRPPRLPRPRPRPSVPPRP | -0.185
RRIRCRPPRLPRPRPRPHAGPRP | 0.185
RRIRPRPPRLPRPRPRPHAIPRP | -0.217
RRIRKRPPRLPRPRPRPNKYPRP | -0.168
RRIRLRPPRLPRPRPRPHDQPRP | 0.276
RRIRFRPPRLPRPRPRPQNNPRP | -0.656
RRIRFRPPRLPRPRPRPFEEPRP | -0.119
RRIRGRPPRLPRPRPRPVVHPRP | 0.254
RRIRGRPPRLPRPRPRPPIYPRP | 0.132
RRIRTRPPRLPRPRPRPNRMPRP | -0.331
RRIRDRPPRLPRPRPRPLPLPRP | -0.0937
RRIRHRPPRLPRPRPRPQMSPRP | -0.0899
RRIRMRPPRLPRPRPRPCRNPRP | -0.326
RRIRWRPPRLPRPRPRPMICPRP | -0.00725

Sequence | shrunken log2 fold change
RRIRPRPPRLPRPRPRPHMWPRP | -0.175
RRIRERPPRLPRPRPRPRGLPRP | 0.159
RRIRNRPPRLPRPRPRPGVCPRP | 0.241
RRIRRRPPRLPRPRPRPSWHPRP | -0.0466
RRIRYRPPRLPRPRPRPALCPRP | -0.0404
RRIRFRPPRLPRPRPRPITHPRP | -0.49
RRIRQRPPRLPRPRPRPAYWPRP | 0.128
RRIRLRPPRLPRPRPRPKLCPRP | 0.115
RRIRYRPPRLPRPRPRPINCPRP | -0.122
RRIRPRPPRLPRPRPRPYENPRP | -0.66
RRIRPRPPRLPRPRPRPNHQPRP | -0.251
RRIRERPPRLPRPRPRPPYIPRP | -0.252
RRIRQRPPRLPRPRPRPLLKPRP | -0.321
RRIRERPPRLPRPRPRPFPDPRP | -0.00133
RRIRSRPPRLPRPRPRPQFSPRP | -0.152
RRIRNRPPRLPRPRPRPYFNPRP | -1.51
RRIRYRPPRLPRPRPRPVSCPRP | -0.0731
RRIRFRPPRLPRPRPRPYPYPRP | -0.1
RRIRVRPPRLPRPRPRPGYHPRP | -0.364
RRIRHRPPRLPRPRPRPLRKPRP | 0.0993
RRIRMRPPRLPRPRPRPTGTPRP | 0.407
RRIRQRPPRLPRPRPRPHFSPRP | -0.508

Sequence | shrunken log2 fold change
RRIRDRPPRLPRPRPRPRGVPRP | 0.393
RRIRWRPPRLPRPRPRPEQAPRP | -0.0201
RRIRKRPPRLPRPRPRPCYVPRP | -0.69
RRIRTRPPRLPRPRPRPTRDPRP | 0.136
RRIRVRPPRLPRPRPRPIPIPRP | -0.106
RRIRDRPPRLPRPRPRPHQLPRP | -0.0991
RRIRSRPPRLPRPRPRPHHSPRP | -0.464
RRIRERPPRLPRPRPRPIIIPRP | -0.0562
RRIRERPPRLPRPRPRPPDEPRP | -0.0361
RRIRNRPPRLPRPRPRPAWEPRP | 0.247
RRIRNRPPRLPRPRPRPCCCPRP | -0.0783
RRIRRRPPRLPRPRPRPVKTPRP | 0.05
RRIRERPPRLPRPRPRPEFAPRP | 0.0144
RRIRQRPPRLPRPRPRPWSEPRP | -0.266
RRIRCRPPRLPRPRPRPEGAPRP | 0.766
RRIRFRPPRLPRPRPRPDLAPRP | 0.0811
RRIRARPPRLPRPRPRPLFHPRP | -0.249
RRIRWRPPRLPRPRPRPQQYPRP | -0.284
RRIRQRPPRLPRPRPRPKVKPRP | -0.223
RRIRGRPPRLPRPRPRPFTYPRP | 0.0977
RRIRFRPPRLPRPRPRPFCKPRP | -0.374
RRIRTRPPRLPRPRPRPEVIPRP | -0.0149

Sequence | shrunken log2 fold change
RRIRKRPPRLPRPRPRPHYWPRP | -0.047
RRIRIRPPRLPRPRPRPHGIPRP | -0.0115
RRIRYRPPRLPRPRPRPHELPRP | -0.00663
RRIRQRPPRLPRPRPRPQKMPRP | -0.00813
RRIRARPPRLPRPRPRPWGFPRP | 0.206
RRIRGRPPRLPRPRPRPWQAPRP | 0.00236
RRIRGRPPRLPRPRPRPCCGPRP | 0.781
RRIRFRPPRLPRPRPRPVLAPRP | 0.239
RRIRERPPRLPRPRPRPCCVPRP | -0.743
RRIRKRPPRLPRPRPRPCWLPRP | 0.246
RRIRMRPPRLPRPRPRPIDAPRP | 0.616
RRIRHRPPRLPRPRPRPAGDPRP | 0.309
RRIRCRPPRLPRPRPRPNCHPRP | -0.314
RRIRMRPPRLPRPRPRPLHMPRP | -0.0934
RRIRKRPPRLPRPRPRPMIKPRP | -0.0199
RRIRQRPPRLPRPRPRPLVRPRP | 0.0989
RRIRSRPPRLPRPRPRPAYRPRP | -0.154
RRIRPRPPRLPRPRPRPTCCPRP | -0.0529
RRIRFRPPRLPRPRPRPYIRPRP | -0.755
RRIRDRPPRLPRPRPRPYITPRP | -0.879
RRIRTRPPRLPRPRPRPNKLPRP | -0.127
